The record followed here is the supplement of paper PMC12042874.

± gives the uncertainty stated by the source.

The data set in a line: amyloid nucleation score (Sup35N fusion, yeast selection) (log enrichment); library NNK3; higher = more nucleation; inactive = no reads after selection. A digest of the protocol: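 Libraries of peptides of 20 random codons fused to Sup35N were expressed in psi-negative yeast and induced 24 hours with 100 μM copper sulfate. Selection was 7 days at 30°C on medium lacking adenine and uracil, and plasmid inserts were Illumina-sequenced before and after selection. Nucleation score is the DiMSum log enrichment of output over input reads, centred on the mode score of non-aggregating sequences, and sequences with under 100 input reads were left out.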
With LMLEISIHLLLYRVSISGYF, the amyloid nucleation score entry was “inactive”.
Under LMLIFRLNCG stands 1.62 ± 0.097; under LMLILCY, “inactive”; under LMQFLAQLTSLSLSLLEVIW, “inactive”.
Under LMRLLLNYWSITAIILL stands “inactive”; under LMSTKVVFEL, 0.076 ± 0.19.
Under LNADVTMLKSNGVMTIT stands “inactive”.
On to LNCATFHYLTAVILMEYCRT, for which the amyloid nucleation score result was “inactive”.
The substance LNCGSAFRDVFTVMALNTRV showed an amyloid nucleation score of -0.14 ± 0.88.
Under LNCMVITFVCFLVSNSIGGD stands 1.71 ± 0.11; under LNDDRISSGYAASIVKGLLT, -0.873 ± 1.4.
Under LNDGALDGQSTDALMGMEMR stands “inactive”; under LNFAHAKMFSFITMVVY, “inactive”.
With LNFCFHYCI the figure was 1.54 ± 0.12; with LNLLSSSMIWSFVIGNRRVY, “inactive”; with LNLMD, “inactive”.
LNLSLVNCLMAVTCSLFL: the amyloid nucleation score was 1.44 ± 0.13.
In the case of LNLTGVISNLRVVNGQ, the amyloid nucleation score entry was “inactive”.
With LNLVVRHFPTNR the entry was “inactive”.
As to LNNSEWSLS, the amyloid nucleation score entry was “inactive”.
With LNQGHYSVDLSSATGTVTTF the entry was “inactive”.
Under LNRANNGVVYQMGVRDFQSS stands “inactive”; under LNRAPTAQLSGDCRVGVQAT, “inactive”.
With LNRSSFHLELITSTCKVFLV the entry was “inactive”; with LNSFSPGKNDCS, “inactive”; with LNVDNCAYVFSDDNFMTDVN, “inactive”.
LNWMRFYVMDMVTFGVWSDQ came in with an amyloid nucleation score of 0.152 ± 0.31.
Under LPAEMELVWHRRMNLP stands “inactive”; under LPCPACKVLNDKNSSKCENY, “inactive”.
With LPGNVFDVPLFNLDVYWVTR the entry was “inactive”; with LPRLFVVDYPSQ, “inactive”.
For LPSLQTG, the amyloid nucleation score entry was “inactive”.
LQGQHDAHWQSCSRLSECSQ: the amyloid nucleation score entry was “inactive”.
For LQHFVR, the amyloid nucleation score result was “inactive”.
With LQISSMIFELYIFDLMMVM the entry was “inactive”; with LQKCNWRRMVGRNQCWGKAR, 0.89 ± 0.19.
With LQLLENQSNAIYWHGGNESD the entry was “inactive”; with LQLLRIGHWMLPCCWRILLV, “inactive”.
With LQPCKNMSTLSQNPTLRCPF the entry was “inactive”.
The substance LQPGMDFSCRFKRLTLNMVH had an amyloid nucleation score of -0.38 ± 0.88.
Take LQSCSCAGLFPDL: the amyloid nucleation score entry was “inactive”.
LQSYRDLQTRFFLFSAHTSL: the amyloid nucleation score entry is “inactive”.
As for LQTVNLLVPACI, the amyloid nucleation score result is “inactive”.
Under LRATNRGVMLNRFVSTMDKS stands “inactive”; under LRCVGGSGSEGLVLSRMVTG, “inactive”.
Under LRDFRKVSPAKVIDNRFQTD stands 0.827 ± 0.17; under LREHWEELVLGFWFPKVCCF, “inactive”.
With LREKND the entry was “inactive”.
Take LREMGLHYWGD: the amyloid nucleation score result is “inactive”.
With LRGTMGEV the entry was “inactive”; with LRIGNVVCLKLSFSFNRYLW, 0.352 ± 0.75; with LRLCGAMPDRCLW, “inactive”.
With LRLGRTVLYPIVLWLPYCFD the entry was “inactive”; with LRLVKYNAGIHYGSVGPQFL, “inactive”; with LRMWERMCAVSL, “inactive”.
Under LRRRSLDHKSGSYLVTG stands “inactive”.
Substance LRRYALLVNAAQKEMRYSSS showed an amyloid nucleation score of -0.616 ± 1.1.
Under LRSFGYRRQ stands “inactive”.
Under LRSKECIKMALKWLCKKYYW stands “inactive”; under LRSLYSTINFKMCWICEAAS, “inactive”.
As to LRSRKWSSTVSCEYSANGLR, the amyloid nucleation score entry was “inactive”.
With LRTLALPSSVFVRDVHYY the figure was 0.987 ± 0.15; with LRYSVEAFTRDDLTESSQVV, “inactive”.
Regarding LSCNDYNDG, the amyloid nucleation score entry is “inactive”.
Under LSDCRSWVPCGRHCSF stands “inactive”; under LSDFMLVAILTV, “inactive”.
With LSELVLSWMQMDSCTRFDMC the entry was “inactive”; with LSEVRLRRQLLVGACDGGYN, “inactive”; with LSGPRYLVVKSGCACRDSFR, “inactive”.
Under LSGYYEQVVWVNRSSNSTMN stands “inactive”; under LSIDMSLYLCSTFYFK, 2.31 ± 0.06; under LSIYGDPAYCALFAYECLWL, 1.93 ± 0.06.
Regarding LSIYYEFFLSETNFCYMLRC, the amyloid nucleation score stood at 0.766 ± 0.15.
Turning to LSKNSEILIYAYVLETFSCS, the amyloid nucleation score result is “inactive”.
Take LSKPFPSMHFSRRWNRNGLW: the amyloid nucleation score entry is “inactive”.
Under LSLHEGWSVNCVFCLLLTVW stands 2.42 ± 0.077; under LSLTRNSH, “inactive”; under LSLTYVSPHA, 0.968 ± 0.17.
With LSLVCNCRSTCNCPGLSL the entry was “inactive”.
With LSLYPFMWKYIIGAGKWLFL the entry was “inactive”.
For LSMDLPNQSLDKVSKRHSAN, the amyloid nucleation score entry was “inactive”.
With LSMFGGNASALL the entry was “inactive”; with LSNGDAKTSRTASVRCLRYA, “inactive”.
With LSRDGVFVPPTSRSYHPRLK the entry was “inactive”; with LSSCMWDGPFFNCRVMKLSG, “inactive”.
With LSSWEIVSSLSHWNVYVIAR the entry was “inactive”; with LSVRSTLARLPSGVIMMRSM, “inactive”; with LSYFYKVPLDTAYMW, 1.07 ± 0.12.
LSYNTVDVWPLAFNFWWMIS returned an amyloid nucleation score of 0.199 ± 0.44.
Under LTCSWIICLSMSYLTSRYNR stands 1.83 ± 0.1.
LTELSETVPVVKRWKCLDYF: the amyloid nucleation score is -0.807 ± 1.9.
With LTFLVRDCCTCSICNDGPSR the figure was 3.08 ± 0.079; with LTFVHNWFDPLCLHRNSAMN, “inactive”; with LTGACVLNR, 0.106 ± 1.
Under LTGLEMLYYTCFNVCTRKCV stands “inactive”; under LTHPCLMPFMLVVTRLYMAA, -1.03 ± 1.8.
With LTIRPFEVGRESESGFVLIS the entry was “inactive”.
